Laboratory results published in IntAct's records for PubMed 16280327.

B1: B-cell lymphoma/leukemia 10 (Homo sapiens), O95999 (parent)
chain: MEPTAPSLTEEDLTEVKKDALENLRVYLCEKIIAERHFDHLRAKKILSREDTEEISCRTSSRKRAGKLLDYLQENPKGLDTLVESIRREKTQNFLIQKITDEVLKLRNIKLEHLKGLKCSSCEPFPDGATNNLSRSNSDESNFSEKLRASTVMYHPEGESSTTPFFSTNSSLNLPVLEVGRTENTIFSSTTLPRPGDPGAPPLPPDLQLEEEGTCANSSEMFLPLRSRTVSRQ
partner: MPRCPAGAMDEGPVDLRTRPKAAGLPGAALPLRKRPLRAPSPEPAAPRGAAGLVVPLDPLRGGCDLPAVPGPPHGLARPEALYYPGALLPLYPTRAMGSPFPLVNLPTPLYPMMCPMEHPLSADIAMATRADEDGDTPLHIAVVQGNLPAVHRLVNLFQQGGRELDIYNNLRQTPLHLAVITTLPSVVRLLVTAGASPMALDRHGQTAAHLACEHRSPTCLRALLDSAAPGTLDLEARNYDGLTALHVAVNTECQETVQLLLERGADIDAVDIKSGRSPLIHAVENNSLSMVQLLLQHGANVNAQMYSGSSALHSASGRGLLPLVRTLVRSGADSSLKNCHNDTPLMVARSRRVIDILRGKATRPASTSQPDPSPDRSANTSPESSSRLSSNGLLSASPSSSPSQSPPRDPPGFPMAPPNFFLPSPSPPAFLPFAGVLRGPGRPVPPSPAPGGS

Variants of: B1
Details: with bcl3_human BCL3, P20749

| effect of a mutation on the interaction | Variant |
| --- | --- |
| increasing interaction | MEPTAPSLTEEDLTEVKKDALENLRVYLCEKIIAERHFDHLRAKKILSREDTEEISCRTSSRKRAGKLLDYLQENPKGLDTLVESIRREKTQNFLIQKITDEVLKLRNIKLEHLKGLKCSSCEPFPDGATNNLSRSNSDESNFSEKLRASTVMYHPEGESSTTPFFSTNSSLNLPVLEVGRTENTIFSSTTLPRPGDPGAPPLPPDLQLEEEGTCANDSEMFLPLRSRTVSRQ [S218D] |
| increasing interaction | MEPTAPSLTEEDLTEVKKDALENLRVYLCEKIIAERHFDHLRAKKILSREDTEEISCRTSSRKRAGKLLDYLQENPKGLDTLVESIRREKTQNFLIQKITDEVLKLRNIKLEHLKGLKCSSCEPFPDGATNNLSRSNSDESNFSEKLRASTVMYHPEGESSTTPFFSTNSSLNLPVLEVGRTENTIFSSTTLPRPGDPGAPPLPPDLQLEEEGTCANSSEMFLPLRSRTVDRQ [S231D] |
